Assay: soluble on expression in E. coli; label from the status in PepcDB or PDB records

Sequence | soluble on expression in E. coli
MGSDKIHHHHHHMKIMSIELGKFNQLEVVKQVDFGMYLDGGEEGEILLPTRYVPEDCKLGDWLNVFLYLDNEERLIATTLTPLVQVGEFACLEVSWVNQFGAFLNWGLMKDLFVPFSEQKMKMQVGNKYVIHAHIDDESFRIVASAKVDRYLSKEKASYQPGEEVNILIWQKTDLGFKAIIENMYSGLLYDSEIFQTLHTGDVLKAYVKQVREDGKIDLILQKPGFEKIDDFSKTLHRYITEHGGWIGLTDKSPAEEIYDTFGVSKKTFKKAVGDLYKKRLILLHEDGIELVRP | not soluble
MGSDKIHHHHHHMTKQSKTQIRICFVGDSFVNGTGDPECLGWTGRVCVNANKKGYDVTYYNLGIRRDTSSDIAKRWLQEVSLRLHKEYNSLVVFSFGLNDTTLENGKPRVSIAETIKNTREILTQAKKLYPVLMISPAPYIEQQDPGRRRRTIDLSQQLALVCQDLDVPYLDVFPLLEKPSVWLHEAKANDGVHPQAGGYTEFARIVENWDAWLNWFR | soluble
MDRRQKRLIFSTITSKMNLSEEVDLEDYVARPDKISGADINSICQESGMLAVRENRYIVLAKDFEKAYKTVIKKDEQEHEFYK | soluble
MEIINDAELIRSMQRQQHIDAELLTDANVRFEQPLEKNNYVLSEDETPCTRVNYISLDDKTVRKFSFLPSVLMKETAFKTGMCLGSNNLSRLQKAAQQILIVRGYLTSQAIIQPQNMDSGILKLRVSAGEIGDIRYEEKRDGKSAEGSISAFNNKFPLYRNKILNLRDVEQGLENLRRLPSVKTDIQIIPSEEEGKSDLQIKWQQNKPIRFSIGIDDAGGKTTGKYQGNVALSFDNPLGLSDLFYVSYGRGLAHKTDLTDATGTETESGSRSYSVHYSVPVKKWLFSFNHNGHRYHEATEGYSVNYDYNGKQYQSSLAAERMLWRNRLHKTSVGMKLWTRQTYKYIDDAEIEVQRRRSAGWEAELRHRAYLNRWQLDGKLSYKRGTGMRQSMPAPEENGGDILPGTSRMKIITASLDAAAPFILGKQQFFYATAIQAQWNKTPLVAQDKLSIGSRYTVRGFDGEQSLFGERGFYWQNTLTWYFHPNHQFYLGADYGRVSGESAQYVSGKQLMGAVVGFRGGHKVGGMFAYDLFAGKPLHKPKGFQTTNTVYGFNLNYSF | not soluble
MIIMGLFDEVVGAFLKGDAGKYQAILSWVEEQGGIQVLLEKLQSGGLGAILSTWLSNQQGNQSVSGEQLESALGTNAVSDLGQKLGVDTSTASSLLAEQLPKIIDALSPQGEVSPQANNDLLSAGMELLKGKLFR | not soluble
MGSDKIHHHHHHMAGNTIGQLFRVTTFGESHGLALGCIVDGVPPGIPLTEADLQHDLDRRRPGTSRYTTQRREPDQVKILSGVFEGVTTGTSIGLLIENTDQRSQDYSAIKDVFRPGHADYTYEQKYGLRDYRGGGRSSARETAMRVAAGAIAKKYLAEKFGIEIRGCLTQMGDIPLDIKDWSQVEQNPFFCPDPDKIDALDELMRALKKEGDSIGAKVTVVASGVPAGLGEPVFDRLDADIAHALMSINAVKGVEIGDGFDVVALRGSQNRDEITKDGFQSNHAGGILGGISSGQQIIAHMALKPTSSITVPGRTINRFGEEVEMITKGRHDPCVGIRAVPIAEAMLAIVLMDHLLRQRAQNADVKTDIPRW | not soluble
MGSDKIHHHHHHLRIEQKLWRENTGWSDLSPQVDGLMPQLLIVFGTRKYLQEEVRFEEIKGFYPGAHIFGCSTAGEICATNVFEDALAITALEFEHTRIESRQIHLSQVQNSFQAGEYLASSLTHDDLSHVLVLSDGLHVNGSELLQGLTSSLPPGIAITGGMAGDGVSFEETLVFLDAPPTPDTIAVLGFYGNHLRVGYGSMGGFDPFGPKRLITRSAANVLYEMDGRSALELYKKYLGEHAEGLPATGVFFPLSISGEEVAESLVRTILAVNEEEQSLTFGGDVPTGAYARMMKANLDRLIDGAVTAAESILSVVNNASPELAILISCFGRRSILKQRTEEEVEAVSDVFGSGCMLTGFYSYGEISPFKPGEKPEFHNQTMTITTFREV | not soluble
MGSDKIHHHHHHGADFVKGDRTFAADAELGATVTTGNTETTSLKGRLDMKHELGNWENQYLLEALYKEDSGEETGKRYYGLVQGNYKFSDVNYMFANANHEIDPFTGFDSKSTISAGYGHKFVDTEKTTFAVEVGPGFQYKRLDDESAAEAGYDTEESWVAHGVMNFETEITDNSKFKQLFVADYGESLEGRSETSITANIVGALAMKFAVIVRYNSEPLDNKKSTDTETNMTLLYSF | not soluble
MKRTPLFEKHVELGAKMVDFAGWEMPLYYTSIFEEVMAVRKSVGMFDVSHMGEFLVKGPEAVSFIDFLITNDFSSLPDGKAIYSVMCNENGGIIDDLVVYKVSPDEALMVVNAANIEKDFNWIKSHSKNFDVEVSNISDTTALIAFQGPKAQETLQELVEDGLEEIAYYSFRKSIVAGVETLVSRTGYTGEDGFELMLEAKNAPKVWDALMNLLRKIDGRPAGLGARDVCRLEATYLLYGQDMDENTNPFEVGLSWVVKLNKDFVGKEALLKAKEKVERKLVALELSGKRIARKGYEVLKNGERVGEITSGNFSPTLGKSIALALVSKSVKIGDQLGVVFPGGKLVEALVVKKPFYRGSVRREV | soluble
MTKTKFEKVLLIVNPKAGQGDLHTNLTKIVPPLAAAFPDLHILHTKEQGDATKYCQEFASKVDLIIVFGGDGTVFECTNGLAPLEIRPTLAIIPGGTCNDFSRTLGVPQNIAEAAKLITKEHVKPVDVAKANGQHFLNFWGIGLVSEVSNNIDAEEKAKLGKIGYYLSTIRTVKNAETFPVKITYDGQVYEDEAVLVMVGNGEYLGGIPSFIPNVKCDDGTLDIFVVKSTGIQAFKDYIGKKLFEDSNENDIFHVKAKSIHIETEEEKEVDTDGESSLHTPCQIELLQGHFTMIYNPAVV | soluble
MATPETRRRPNILVTGSPGTGKSTLGQQVAEKLGFVFIEVSKEVRENNLQGDFDEQYNCHVLDEDKLLDHISDRLDSDEGGIVVDYHGCDLFPERWFDVVVVLRCPTEKLYDRLQSRGYSEFKIKENVECEIFGTLLEEARESYSEDIVHELQSETTEQMEENLERICELAGEFKNEHTMEQ | not soluble
MIGVVGGGIAGLSAAYRLQQRGHEVRVFEASEDLGGLAATYETAGDPIEKFYHHLSKSEETIVDLAEELGLGDAVEWHIGENAYYVDGVVHPMDKPWEILSYPHLSLYDTFRLGMLVLDIDVRGGVPSFDTYERLEDFEGVPIEEFVVDHTTRGVYENFFEPLLDAKFGDRKDDVSAAWLLGRVKFRGERDILNGEILGYFDGGFGRLLDALVDAVGRDNIATGTRVSDIDTSGGTVSSLTATDGTETTVHDVDSVVVATMPNVLEALTGYTCDIDFQGTVCSVISMDEPLLDTYWLNIADDAPFGALIEHTNFVSAERYGGEHLLYVARYIQDESEAIWQQSDDEVAETWLQGIESLFPDFDRDAVNWIRTGRNPRTAPVYERGYLDMVIPYDLSDAVADGLYYAGMASRAQYPERSLNGGIVAGFECADRIARDPSAATKTDESPLSEAQRLEHHHHHH | not soluble
MALPESESARTEQALGRLVGSLCVVTAQQGELSSAMLASWVSQATFSPPGLTVAVAKERAIESLLHKNSCFVLNILQEGNHLGLMKHFLKPFAPGGDRFADVATETAENGAPILTESLAYLECRVQQRLECGDHWVLYAVTDRGALLKDGVTAVHHRKSGDHYLEHHHHHH | not soluble
MVRKALDGQEVVTASAETLRVEALEVRLGENLVLKEVDLAVEPGEIVALLGPSGSGKTTLLRAVAGLLRPTGGRILLGKEVFFDGKKGVFLPPERRNLGLVFQSYALWPQRTVYENVAYGLRLRKVPEKAVRERVLGLLDRLGLTGLERRYPGALSGGQQQRVSLARALAYDPKLLLLDEPLSNLDAKLRDQARVWLRETLKATGKAALFVTHDQGEAMAIADRIALLNEGRMEQVGTPEELYRNPKTLFVADFLGNPNVVEALVVGLEGSTARLELAGFPLRARAMGALVPGRLAKLVLRPEALRPAGVGEVNALEGALAHSLYLGSHYEHWVRVGDALLRFYSPLPLGEARVRLAVDPEAALAYPG | soluble
GAEDHANHEHDDEMSAAAAHGVESLIYRRDTPFHPVRFNDWLDDWDGAIVRAKGFAWVASRPETVLGVSQAGPSVQAGPIGEWGNDDPSTRLVFIGQEMDGDALIGELDDCLATDKERTETFASDPFPREG | not soluble
MPSYTVTVATGSQWFAGTDDYIYLSLVGSAGCSEKHLLDKPFYNDFERGAVDSYDVTVDEELGEIQLVRIEKRKYWLNDDWYLKYITLKTPHGDYIEFPCYRWITGDVEVVLRDGRAKLARDDQIHILKQHRLKELETRQKQYRWMEWNPGFPLSIDAKCHKDLPRDIQFDSEKGVDFVLNYSKAMENLFINRFMHMFQSSWNDFADFEKIFVKISNTISERVMNHWQEDLMFGYQFLNGCNPVLIRRCTELPEKLPVTTEMVECSLERQLSLEQEVQQGNIFIVDFELLDGIDANKTDPCTLQFLAAPICLLYKNLANKIVPIAIQLNQIPGDENPIFLPSDAKYDWLLAKIWVRSSDFHVHQTITHLLRTHLVSEVFGIAMYRQLPAVHPIFKLLVAHVRFTIAINTKAREQLICECGLFDKANATGGGGHVQMVQRAMKDLTYASLCFPEAIKARGMESKEDIPYYFYRDDGLLVWEAIRTFTAEVVDIYYEGDQVVEEDPELQDFVNDVYVYGMRGRKSSGFPKSVKSREQLSEYLTVVIFTASAQHAAVNFGQYDWCSWIPNAPPTMRAPPPTAKGVVTIEQIVDTLPDRGRSCWHLGAVWALSQFQENELFLGMYPEEHFIEKPVKEAMARFRKNLEAIVSVIAERNKKKQLPYYYLSPDRIPNSVAI | soluble
AAASFGQTKIPRGNGPYSVGCTDLMFDHTNKGTFLRLYYPSQDNDRLDTLWIPNKEYFWGLSKFLGTHWLMGNILRLLFGSMTTPANWNSPLRPGEKYPLVVFSHGLGAFRTLYSAIGIDLASHGFIVAAVEHRDRSASATYYFKDQSAAEIGDKSWLYLRTLKQEEETHIRNEQVRQRAKECSQALSLILDIDHGKPVKNALDLKFDMEQLKDSIDREKIAVIGHSFGGATVIQTLSEDQRFRCGIALDAWMFPLGDEVYSRIPQPLFFINSEYFQYPANIIKMKKCYSPDKERKMITIRGSVHQNFADFTFATGKIIGHMLKLKGDIDSNVAIDLSNKASLAFLQKHLGLHKDFDQWDCLIEGDDENLIPGTNINTTNQHI | soluble
MSSEPPPPPQPPTHQASVGLLDTPRSRERSPSPLRGNVVPSPLPTRRTRTFSATVRASQGPVYKGVCKCFCRSKGHGFITPADGGPDIFLHISDVEGEYVPVEGDEVTYKMCSIPPKNEKLQAVEVVITHLAPGTKHETWSGHVISS | soluble
MSITPHRLPVAPVIVREAYLSLLRKGWRPGDRDLKTPRNVKIETGIIEKAEGSALVKLGKTQVIAGVKAGVGAPFKDTPNQGVLTVHAEFVPLASPVFEPGPPDENAIELARVVDRSLREVGAVDLESLVIRPGEKVWVLWVDLYIIDHDGNLFDASMLATMAVLLTARLPRYEESETGEIIISKEGEGEELKVKTRVVTVTTAKIDRYIVVDPNIEEEAVSDVRLVTAVDENGRIVGLQKTGMGSLTEADIETMIGYSLEASKVYFKALEEAIKP | soluble
MGSDKIHHHHHHMKSEDNGESWSDTYFLTHGEKWHSSACNVLFSNGNVYLAMEQRCRLNEVTGWDVAGLSPTLFRACVEDNLCLASSWSRSEKFIYKEVFDGAKLDFFGIPFYDCETNKPKEIATGINNAPLGWLEANVVKFVDKDHIWHTDLKEVFHLFLRAHTGGVNYAHLFKIEIQDDQSMIPSLEHTPSGQKISYIPFPGGHLKFFIIYDELTRFYWLVSNQATDSMRRVSSLSNIKRYGLPNNERHRLQLHFSRNCVDWCFAGMVACSTNELYSRNYPSAVIKGDDLHIVCRSADEHALNPQYNNMITHHIVSNFRQLIY | not soluble
